We go through 1 molecule from US20240366788A1 (DUKE UNIVERSITY, published 2024).

The target of the test is T1, H2-Q7 (QA2), GPI-anchored MHC class Ib molecule on murine T cells (mouse, UniProt P14429 22-334; P01887 21-119).
T1 construct: whole, on cells; also called H2-Q7/MHC-I
T1 sequence (MHC heavy, looked up): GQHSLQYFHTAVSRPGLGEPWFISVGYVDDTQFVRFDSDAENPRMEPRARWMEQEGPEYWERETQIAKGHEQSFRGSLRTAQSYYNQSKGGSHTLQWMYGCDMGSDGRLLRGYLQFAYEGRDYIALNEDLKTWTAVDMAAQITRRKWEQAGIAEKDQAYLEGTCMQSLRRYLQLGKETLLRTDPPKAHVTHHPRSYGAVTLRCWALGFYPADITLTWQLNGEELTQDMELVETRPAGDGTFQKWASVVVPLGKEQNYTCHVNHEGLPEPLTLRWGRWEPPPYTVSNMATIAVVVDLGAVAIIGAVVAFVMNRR
T1 sequence (b2m, looked up): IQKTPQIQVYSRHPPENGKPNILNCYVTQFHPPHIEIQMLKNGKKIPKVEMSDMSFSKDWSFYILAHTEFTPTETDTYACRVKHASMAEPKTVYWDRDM
Kind of test: qPCR of surface-bound viral genomes on C57BL/6J T cells, 1 hr at 4 C, with against without PI-PLC pre-treatment. A general note: Real-time PCR tracks product formation cycle by cycle.

B1: Ark313 AAV capsid (AAV6 capsid variant with 454-VVNPAEG-460) (other)
chain: MAADGYLPDWLEDNLSEGIREWWDLKPGAPKPKANQQKQDDGRGLVLPGYKYLGPFNGLDKGEPVNAADAAALEHDKAYDQQLKAGDNPYLRYNHADAEFQERLQEDTSFGGNLGRAVFQAKKRVLEPFGLVEEGAKTAPGKKRPVEQSPQEPDSSSGIGKTGQQPAKKRLNFGQTGDSESVPDPQPLGEPPATPAAVGPTTMASGGGAPMADNNEGADGVGNASGNWHCDSTWLGDRVITTSTRTWALPTYNNHLYKQISSASTGASNDNHYFGYSTPWGYFDFNRFHCHFSPRDWQRLINNNWGFRPKRLNFKLFNIQVKEVTTNDGVTTIANNLTSTVQVFSDSEYQLPYVLGSAHQGCLPPFPADVFMIPQYGYLTLNNGSQAVGRSSFYCLEYFPSQMLRTGNNFTFSYTFEDVPFHSSYAHSQSLDRLMNPLIDQYLYYLNRTQNQSVVNPAEGLLFSRGSPAGMSVQPKNWLPGPCYRQQRVSKTKTDNNNSNFTWTGASKYNLNGRESIINPGTAMASHKDDKDKFFPMSGVMIFGKESAGASNTALDNVMITDEEEIKATNPVATERFGTVAVNLQSSSTDPATGDVHVMGALPGMVWQDRDVYLQGPIWAKIPHTDGHFHPSPLMGGFGLKHPPPQILIKNTPVPANPPAEFSATKFASFITQYSTGQVSVEIEWELQKENSKRWNPEVQYTSNYAKSANVDFTVDNNGLYTEPRPIGTRYLTRPL
With B1, the “fold reduction in bound virus per cell after PI-PLC treatment (GPI cleavage)” value is around 10 fold.
